# Measured values as given in US20230220042A1 (SHANGHAI JIAO TONG UNIVERSITY SCHOOL OF MEDICINE, published 2023).
# Numbering of substitutions follows the chain as printed. In names and notes the source's numbering stands.
# T1: Biotin-FcγRIIB (human, UniProt P31994 43-217, limits assumed, biotin-labelled)
# T1 construct: Bought, biotin-labelled; used at 1 µg/ml for staining and sorting; also called human FcγRIIB; CD32b
# T1 sequence (looked up): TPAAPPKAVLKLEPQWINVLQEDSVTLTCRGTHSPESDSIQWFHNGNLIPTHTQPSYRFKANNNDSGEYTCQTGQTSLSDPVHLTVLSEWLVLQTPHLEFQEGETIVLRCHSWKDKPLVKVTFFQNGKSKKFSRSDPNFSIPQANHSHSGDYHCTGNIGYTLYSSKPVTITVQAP
# B1: anti-human OX40 antibody, human IgG2 Fc mutant Mut_8 (V266L/L328W) (antibody, name in EU numbering)
# heavy: QVQLQESGPGLVKPSGTLSLTCAVSGGSISSSIWWSWVRQPPGKGLEWIGEIHHSGNTNCNPSLKSRVTISIDKSKNQFSLKLTSVTAADTAVYYCARAGTGTTLDYWGQGTLVTVSSASTKGPSVFPLAPCSRSTSESTAALGCLVKDYFPEPVTVSWNSGALTSGVHTFPAVLQSSGLYSLSSVVTVPSSNFGTQTYTCNVDHKPSNTKVDKTVERKCCVECPPCPAPPVAGPSVFLFPPKPKDTLMISRTPEVTCVVVDLSHEDPEVQFNWYVDGVEVHNAKTKPREEQFNSTFRVVSVLTVVHQDWLNGKEYKCKVSNKGWPAPIEKTISKTKGQPREPQVYTLPPSREEMTKNQVSLTCLVKGFYPSDIAVEWESNGQPENNYKTTPPMLDSDGSFFLYSKLTVDKSRWQQGNVFSCSVMHEALHNHYTQKSLSLSPGK
# light: EIVLTQSPGTLSLSPGERATLSCRASQSVSGDYLAWYQQKLGQAPRLLIYGASIRATGIPDRFSGSGSGTDFTLTISKLEPEDFAVYYCQQYGSSPLTFGGGTKVEIKRTVAAPSVFIFPPSDEQLKSGTASVVCLLNNFYPREAKVQWKVDNALQSGNSQESVTEQDSKDSTYSLSSTLTLSKADYEKHKVYACEVTHQGLSSPVTKSFNRGEC
# B2: anti-human OX40 antibody, human IgG2 Fc mutant Mut_22 (V266L/S267M/H268E/P271Q) (antibody, name in EU numbering)
# heavy: B1 heavy with S264M, H265E, P268Q, W325L
# light: B1 light
# B3: anti-human OX40 antibody, human IgG2 Fc mutant Mut_19 (V266L/S267E/H268S/E269V/P271C) (antibody, name in EU numbering)
# heavy: B1 heavy with S264E, H265S, E266V, P268C, W325L
# light: B1 light
# B4: anti-human OX40 antibody, human IgG2 Fc mutant Mut_2 (H268D/S298L/L328W) (antibody, name in EU numbering)
# heavy: B1 heavy with L263V, H265D, S295L
# light: B1 light
# B5: anti-human OX40 antibody, human IgG2 Fc mutant Mut_23 (V266L/S267E/E269K/P271G) (antibody, name in EU numbering)
# heavy: B1 heavy with S264E, E266K, P268G, W325L
# light: B1 light
# B6: human IgG2 anti-mouse CD40 surface displayed antibody, Fc mutant A330R (antibody, name in EU numbering)
# light chain (with the P2A rest): DTVLTQSPALAVSPGERVTISCRASDSVSTLMHWYQQKPGQQPKLLIYLASHLESGVPARFSGSGSGTDFTLTIDPVEADDTATYYCQQSWNDPWTFGGGTKLELKRTVAAPSVFIFPPSDEQLKSGTASVVCLLNNFYPREAKVQWKVDNALQSGNSQESVTEQDSKDSTYSLSSTLTLSKADYEKHKVYACEVTHQGLSSPVTKSFNRGECGSGATNFSLLKQAGDVEENPG
# heavy chain: EVQLVESDGGLVQPGRSLKLPCAASGFTFSDYYMAWVRQAPTKGLEWVASISYDGSSTYYRDSVKGRFTISRDNAKSTLYLQMDSLRSEDTATYYCGRHSSYFDYWGQGVMVTVSSASTKGPSVFPLAPCSRSTSESTAALGCLVKDYFPEPVTVSWNSGALTSGVHTFPAVLQSSGLYSLSSVVTVPSSNFGTQTYTCNVDHKPSNTKVDKTVERKCCVECPPCPAPPVAGPSVFLFPPKPKDTLMISRTPEVTCVVVDVSHEDPEVQFNWYVDGVEVHNAKTKPREEQFNSTFRVVSVLTVVHQDWLNGKEYKCKVSNKGLPRPIEKTISKTKGQPREPQVYTLPPSREEMTKNQVSLTCLVKGFYPSDIAVEWESNGQPENNYKTTPPMLDSDGSFFLYSKLTVDKSRWQQGNVFSCSVMHEALHNHYTQKSLSLSPGKLEPPPSTVSNMATVAVLVVLGAAIVTGAVVAFVMKMRRRNTGGKGGDYALAPGSQTSDLSLPDCKVMVHDPHSLA
# notes: as m1; positions are Eu numbers; copies: 2 + 2
# B7: human IgG2 anti-mouse CD40 surface displayed antibody, Fc mutant S298E (antibody, name in EU numbering)
# light chain (with the P2A rest): B6 light chain (with the P2A rest)
# heavy chain: B6 heavy chain with S293E, R325A
# notes: as for B6
# B8: human IgG2 anti-mouse CD40 surface displayed antibody, Fc mutant V266A (antibody, name in EU numbering)
# light chain (with the P2A rest): B6 light chain (with the P2A rest)
# heavy chain: B6 heavy chain with V261A, R325A
# notes: as for B6
# B9: human IgG2 anti-mouse CD40 surface displayed antibody, Fc mutant L328E (antibody, name in EU numbering)
# light chain (with the P2A rest): B6 light chain (with the P2A rest)
# heavy chain: B6 heavy chain with L323E, R325A
# notes: as for B6
# B10: human IgG2 anti-mouse CD40 surface displayed antibody, Fc mutant G327A (antibody, name in EU numbering)
# light chain (with the P2A rest): B6 light chain (with the P2A rest)
# heavy chain: B6 heavy chain with G322A, R325A
# notes: as for B6
# B11: human IgG2 anti-mouse CD40 surface displayed antibody, Fc mutant P331C (antibody, name in EU numbering)
# light chain (with the P2A rest): B6 light chain (with the P2A rest)
# heavy chain: B6 heavy chain with R325A, P326C
# notes: as for B6
# B12: human IgG2 anti-mouse CD40 surface displayed antibody, Fc mutant S298L (antibody, name in EU numbering)
# light chain (with the P2A rest): B6 light chain (with the P2A rest)
# heavy chain: B6 heavy chain with S293L, R325A
# notes: as for B6
# B13: human IgG2 anti-mouse CD40 surface displayed antibody, Fc mutant I332C (antibody, name in EU numbering)
# light chain (with the P2A rest): B6 light chain (with the P2A rest)
# heavy chain: B6 heavy chain with R325A, I327C
# notes: as for B6
# B14: human IgG2 anti-mouse CD40 surface displayed antibody, Fc mutant S267A (antibody, name in EU numbering)
# light chain (with the P2A rest): B6 light chain (with the P2A rest)
# heavy chain: B6 heavy chain with S262A, R325A
# notes: as for B6
# B15: human IgG2 anti-mouse CD40 surface displayed antibody, Fc mutant S298N (antibody, name in EU numbering)
# light chain (with the P2A rest): B6 light chain (with the P2A rest)
# heavy chain: B6 heavy chain with S293N, R325A
# notes: as for B6
# B16: human IgG2 anti-mouse CD40 surface displayed antibody, Fc mutant P271C (antibody, name in EU numbering)
# light chain (with the P2A rest): B6 light chain (with the P2A rest)
# heavy chain: B6 heavy chain with P266C, R325A
# notes: as for B6
# B17: human IgG2 anti-mouse CD40 surface displayed antibody, Fc mutant S267M (antibody, name in EU numbering)
# light chain (with the P2A rest): B6 light chain (with the P2A rest)
# heavy chain: B6 heavy chain with S262M, R325A
# notes: as for B6
# B18: human IgG2 anti-mouse CD40 surface displayed antibody, Fc mutant P331T (antibody, name in EU numbering)
# light chain (with the P2A rest): B6 light chain (with the P2A rest)
# heavy chain: B6 heavy chain with R325A, P326T
# notes: as for B6
# B19: human IgG2 anti-mouse CD40 surface displayed antibody, Fc mutant L328E/I332T (antibody, name in EU numbering)
# light chain (with the P2A rest): B6 light chain (with the P2A rest)
# heavy chain: B6 heavy chain with L323E, R325A, I327T
# notes: as for B6
# B20: human IgG2 anti-mouse CD40 surface displayed antibody, Fc mutant S298K (antibody, name in EU numbering)
# light chain (with the P2A rest): B6 light chain (with the P2A rest)
# heavy chain: B6 heavy chain with S293K, R325A
# notes: as for B6
# B21: human IgG2 anti-mouse CD40 surface displayed antibody, Fc mutant I332A (antibody, name in EU numbering)
# light chain (with the P2A rest): B6 light chain (with the P2A rest)
# heavy chain: B6 heavy chain with R325A, I327A
# notes: as for B6
# Molecular target: human OX40 (human) (UniProt P43489)
# Sequence (P43489 29-277): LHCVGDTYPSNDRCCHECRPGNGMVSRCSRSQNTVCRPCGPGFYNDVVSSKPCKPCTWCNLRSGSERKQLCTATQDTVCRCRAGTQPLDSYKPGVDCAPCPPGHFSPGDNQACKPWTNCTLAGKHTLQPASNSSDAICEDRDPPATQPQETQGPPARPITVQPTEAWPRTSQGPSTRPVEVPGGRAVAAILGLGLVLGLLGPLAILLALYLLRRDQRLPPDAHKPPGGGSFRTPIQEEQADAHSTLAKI
# Assay: cell-based or functional assay
Average increased factor of the activity over wild-type IgG2 of two experiments,"Experiment 1 CFSE fluorescence intensity, 0.01 µg/ml","Experiment 1 CFSE fluorescence intensity, 0.1 µg/ml","Experiment 1 CFSE fluorescence intensity, 1 µg/ml","Experiment 2 CFSE fluorescence intensity, 0.1 µg/ml","Experiment 2 CFSE fluorescence intensity, 1 µg/ml",Average relative activity of two experiments,Experiment 1 average relative activity,"Experiment 1 relative activity, 0.01 µg/ml","Experiment 1 relative activity, 0.1 µg/ml",Molecule
0.65,1020,1080,1070,2730,2590,–,–,–,–,Ctrl hIgG (antibody)
12.3,844,719,799,1810,1440,0.54,0.46,0.36,0.59,B1
9.9,–,–,–,2290,1790,0.43,–,–,–,B2
10.5,880,735,824,2090,1670,0.46,0.42,0.3,0.56,B3
16.5,685,654,677,1550,1150,0.72,0.67,0.65,0.71,B4
9.8,898,777,843,2160,1600,0.43,0.37,0.26,0.48,B5

# Same assay, conditions: not given
"Experiment 1 relative activity, 1 µg/ml",Experiment 2 average relative activity,"Experiment 2 relative activity, 0.1 µg/ml","Experiment 2 relative activity, 1 µg/ml",Molecule
0.44,0.65,0.55,0.75,B1
–,0.43,0.3,0.56,B2
0.4,0.52,0.41,0.63,B3
0.66,0.8,0.69,0.9,B4
0.36,0.52,0.37,0.67,B5

# Molecular target: T1, Biotin-FcγRIIB
# Assay: FACS sorting of displayed Fc library on biotin-FcγRIIB, NGS
Increased factor b Site 2 (point mutation/wild-type),Increased factor b Site 1 (point mutation/wild-type),Enrichment factor (after/before sorting),Increased factor a (enrichment factor/wild-type enrichment factor),Molecule
0,–,–,–,B6
7.1,–,–,–,B7
–,3.1,–,–,B8
–,0.1,–,–,B9
–,3.4,–,–,B10
0.2,–,–,–,B11
2.9,–,–,–,B12
2.7,–,–,–,B13
–,5.5,–,–,B14
2.3,–,–,–,B15
29.9,–,–,–,B16
–,2.6,–,–,B17
0.1,–,–,–,B18
–,–,55.1,36.9,B19
4.4,–,–,–,B20
16.4,–,–,–,B21
